Reference: PMC5923425, “Structural analysis of human ARS2 as a platform for co-transcriptional RNA sorting” (Nature Communications, 2018)

B1: EGFP–ARS2 wt [human] / RBM7 [human (endogenous in HEK 293T/17)] (parent complex)
chain 1: MGDSDDEYDRRRRDKFRRERSDYDRSRERDERRRGDDWNDREWDRGRERRSRGEYRDYDRNRRERFSPPRHELSPPQKRMRRDWDEHSSDPYHSGYEMPYAGGGGGPTYGPPQPWGHPDVHIMQHHVLPIQARLGSIAEIDLGVPPPVMKTFKEFLLSLDDSVDETEAVKRYNDYKLDFRRQQMQDFFLAHKDEEWFRSKYHPDEVGKRRQEARGALQNRLRVFLSLMETGWFDNLLLDIDKADAIVKMLDAAVIKMEGGTENDLRILEQEEEEEQAGKPGEPSKKEEGRAGAGLGDGERKTNDKDEKKEDGKQAENDSSNDDKTKKSEGDGDKEEKKEDSEKEAKKSSKKRNRKHSGDDSFDEGSVSESESESESGQAEEEKEEAEALKEKEKPKEEEWEKPKDAAGLECKPRPLHKTCSLFMRNIAPNISRAEIISLCKRYPGFMRVALSEPQPERRFFRRGWVTFDRSVNIKEICWNLQNIRLRECELSPGVNRDLTRRVRNINGITQHKQIVRNDIKLAAKLIHTLDDRTQLWASEPGTPPLPTSLPSQNPILKNITDYLIEEVSAEEEELLGSSGGAPPEEPPKEGNPAEINVERDEKLIKVLDKLLLYLRIVHSLDYYNTCEYPNEDEMPNRCGIIHVRGPMPPNRISHGEVLEWQKTFEEKLTPLLSVRESLSEEEAQKMGRKDPEQEVEKFVTSNTQELGKDKWLCPLSGKKFKGPEFVRKHIFNKHAEKIEEVKKEVAFFNNFLTDAKRPALPEIKPAQPPGPAQSLTPGLPYPHQTPQGLMPYGQPRPPILGYGAGAVRPAVPTGGPPYPHAPYGAGRGNYDAFRGQGGYPGKPRNRMVRGDPRAIVEYRDLDAPDDVDFF
chain 2: MGAAAAEADRTLFVGNLETKVTEELLFELFHQAGPVIKVKIPKDKDGKPKQFAFVNFKHEVSVPYAMNLLNGIKLYGRPIKIQFRSGSSHAPQDVSLSYPQHHVGNSSPTSTSPSRYERTMDNMTSSAQIIQRSFSSPENFQRQAVMNSALRQMSYGGKFGSSPLDQSGFSPSVQSHSHSFNQSSSSQWRQGTPSSQRKVRMNSYPYLADRHYSREQRYTDHGSDHHYRGKRDDFFYEDRNHDDWSHDYDNRRDSSRDGKWRSSRH
B2: EGFP–ARS2 wt [human] / NCBP3 (endogenous) [human (endogenous in HEK 293T/17)] (parent complex)
chain 1: B1 chain 1
chain 2: MAAVRGLRVSVKAEAPAGPALGLPSPEAESGVDRGEPEPMEVEEGELEIVPVRRSLKELIPDTSRRYENKAGSFITGIDVTSKEAIEKKEQRAKRFHFRSEVNLAQRNVALDRDMMKKAIPKVRLETIYICGVDEMSTQDVFSYFKEYPPAHIEWLDDTSCNVVWLDEMTATRALINMSSLPAQDKIRSRDASEDKSAEKRKKDKQEDSSDDDEAEEGEVEDENSSDVELDTLSQVEEESLLRNDLRPANKLAKGNRLFMRFATKDDKKELGAARRSQYYMKYGNPNYGGMKGILSNSWKRRYHSRRIQRDVIKKRALIGDDVGLTSYKHRHSGLVNVPEEPIEEEEEEEEEEEEEEEEDQDMDADDRVVVEYHEELPALKQPRERSASRRSSASSSDSDEMDYDLELKMISTPSPKKSMKMTMYADEVESQLKNIRNSMRADSVSSSNIKNRIGNKLPPEKFADVRHLLDEKRQHSRPRPPVSSTKSDIRQRLGKRPHSPEKAFSSNPVVRREPSSDVHSRLGVPRQDSKGLYADTREKKSGNLWTRLGSAPKTKEKNTKKVDHRAPGAEEDDSELQRAWGALIKEKEQSRQKKSRLDNLPSLQIEVSRESSSGSEAES
B3: EGFP–ARS2 wt [human] / ZCCHC8 [human (endogenous in HEK 293T/17)] (parent complex)
chain 1: B1 chain 1
chain 2: MAAEVYFGDLELFEPFDHPEESIPKPVHTRFKDDDGDEEDENGVGDAELRERLRQCEETIEQLRAENQELKRKLNILTRPSGILVNDTKLDGPILQILFMNNAISKQYHQEIEEFVSNLVKRFEEQQKNDVEKTSFNLLPQPSSIVLEEDHKVEESCAIKNNKEAFSVVGSVLYFTNFCLDKLGQPLLNENPQLSEGWEIPKYHQVFSHIVSLEGQEIQVKAKRPKPHCFNCGSEEHQMKDCPMPRNAARISEKRKEYMDACGEANNQNFQQRYHAEEVEERFGRFKPGVISEELQDALGVTDKSLPPFIYRMRQLGYPPGWLKEAELENSGLALYDGKDGTDGETEVGEIQQNKSVTYDLSKLVNYPGFNISTPRGIPDEWRIFGSIPMQACQQKDVFANYLTSNFQAPGVKSGNKRSSSHSSPGSPKKQKNESNSAGSPADMELDSDMEVPHGSQSSESFQFQPPLPPDTPPLPRGTPPPVFTPPLPKGTPPLTPSDSPQTRTASGAVDEDALTLEELEEQQRRIWAALEQAESVNSDSDVPVDTPLTGNSVASSPCPNELDLPVPEGKTSEKQTLDEPEVPEIFTKKSEAGHASSPDSEVTSLCQKEKAELAPVNTEGALLDNGSVVPNCDISNGGSQKLFPADTSPSTATKIHSPIPDMSKFATGITPFEFENMAESTGMYLRIRSLLKNSPRNQQKNKKASE
B4: EGFP–ARS2 wt [human] / hMTR4 [human (endogenous in HEK 293T/17)] (parent complex)
chain 1: B1 chain 1
chain 2: MADAFGDELFSVFEGDSTTAAGTKKDKEKDKGKWKGPPGSADKAGKRFDGKLQSESTNNGKNKRDVDFEGTDEPIFGKKPRIEESITEDLSLADLMPRVKVQSVETVEGCTHEVALPAEEDYLPLKPRVGKAAKEYPFILDAFQREAIQCVDNNQSVLVSAHTSAGKTVCAEYAIALALREKQRVIFTSPIKALSNQKYREMYEEFQDVGLMTGDVTINPTASCLVMTTEILRSMLYRGSEVMREVAWVIFDEIHYMRDSERGVVWEETIILLPDNVHYVFLSATIPNARQFAEWICHLHKQPCHVIYTDYRPTPLQHYIFPAGGDGLHLVVDENGDFREDNFNTAMQVLRDAGDLAKGDQKGRKGGTKGPSNVFKIVKMIMERNFQPVIIFSFSKKDCEAYALQMTKLDFNTDEEKKMVEEVFSNAIDCLSDEDKKLPQVEHVLPLLKRGIGIHHGGLLPILKETIEILFSEGLIKALFATETFAMGINMPARTVLFTNARKFDGKDFRWISSGEYIQMSGRAGRRGMDDRGIVILMVDEKMSPTIGKQLLKGSADPLNSAFHLTYNMVLNLLRVEEINPEYMLEKSFYQFQHYRAIPGVVEKVKNSEEQYNKIVIPNEESVVIYYKIRQQLAKLGKEIEEYIHKPKYCLPFLQPGRLVKVKNEGDDFGWGVVVNFSKKSNVKPNSGELDPLYVVEVLLRCSKESLKNSATEAAKPAKPDEKGEMQVVPVLVHLLSAISSVRLYIPKDLRPVDNRQSVLKSIQEVQKRFPDGIPLLDPIDDMGIQDQGLKKVIQKVEAFEHRMYSHPLHNDPNLETVYTLCEKKAQIAIDIKSAKRELKKARTVLQMDELKCRKRVLRRLGFATSSDVIEMKGRVACEISSADELLLTEMMFNGLFNDLSAEQATALLSCFVFQENSSEMPKLTEQLAGPLRQMQECAKRIAKVSAEAKLEIDEETYLSSFKPHLMDVVYTWATGATFAHICKMTDVFEGSIIRCMRRLEELLRQMCQAAKAIGNTELENKFAEGITKIKRDIVFAASLYL
B5: EGFP–ARS2 wt [human] / ZFC3H1 [human (endogenous in HEK 293T/17)] (parent complex)
chain 1: B1 chain 1
chain 2: MATADTPAPASSGLSPKEEGELEDGEISDDDNNSQIRSRSSSSSSGGGLLPYPRRRPPHSARGGGSGGGGGSSSSSSSSQQQLRNFSRSRHASERGHLRGPSSYRPKEPFRSHPPSVRMPSSSLSESSPRPSFWERSHLALDRFRFRGRPYRGGSRWSRGRGVGERGGKPGCRPPLGGGAGSGFSSSQSWREPSPPRKSSKSFGRSPSRKQNYSSKNENCVEETFEDLLLKYKQIQLELECINKDEKLALSSKEENVQEDPKTLNFEDQTSTDNVSITKDSSKEVAPEEKTQVKTFQAFELKPLRQKLTLPGDKNRLKKVKDGAKPLSLKSDTTDSSQGLQDKEQNLTRRISTSDILSEKKLGEDEEELSELQLRLLALQSASKKWQQKEQQVMKESKEKLTKTKTVQQKVKTSTKTHSAKKVSTTAKQALRKQQTKAWKKLQQQKEQERQKEEDQRKQAEEEERRKREEEIRKIRDLSNQEEQYNRFMKLVGGKRRSRSKSSDPDLRRSLDKQPTDSGGGIYQYDNYEEVAMDTDSETSSPAPSPVQPPFFSECSLGYFSPAPSLSLPPPPQVSSLPPLSQPYVEGLCVSLEPLPPLPPLPPLPPEDPEQPPKPPFADEEEEEEMLLREELLKSLANKRAFKPEETSSNSDPPSPPVLNNSHPVPRSNLSIVSINTVSQPRIQNPKFHRGPRLPRTVISLPKHKSVVVTLNDSDDSESDGEASKSTNSVFGGLESMIKEARRTAEQASKPKVPPKSEKENDPLRTPEALPEEKKIEYRLLKEEIANREKQRLIKSDQLKTSSSSPANSDVEIDGIGRIAMVTKQVTDAESKLKKHRILLMKDESVLKNLVQQEAKKKESVRNAEAKITKLTEQLQATEKILNVNRMFLKKLQEQIHRVQQRVTIKKALTLKYGEELARAKAVASKEIGKRKLEQDRFGPNKMMRLDSSPVSSPRKHSAELIAMEKRRLQKLEYEYALKIQKLKEARALKAKEQQNISPVVEEEPEFSLPQPSLHDLTQDKLTLDTEENDVDDEILSGSSRERRRSFLESNYFTKPNLKHTDTANKECINKLNKNTVEKPELFLGLKIGELQKLYSKADSLKQLILKTTTGITEKVLHGQEISVDVDFVTAQSKTMEVKPCPFRPYHSPLLVFKSYRFSPYYRTKEKLPLSSVSYSNMIEPDQCFCRFDLTGTCNDDDCQWQHIQDYTLSRKQLFQDILSYNLSLIGCAETSTNEEITASAEKYVEKLFGVNKDRMSMDQMAVLLVSNINESKGHTPPFTTYKDKRKWKPKFWRKPISDNSFSSDEEQSTGPIKYAFQPENQINVPALDTVVTPDDVRYFTNETDDIANLEASVLENPSHVQLWLKLAYKYLNQNEGECSESLDSALNVLARALENNKDNPEIWCHYLRLFSKRGTKDEVQEMCETAVEYAPDYQSFWTFLHLESTFEEKDYVCERMLEFLMGAAKQETSNILSFQLLEALLFRVQLHIFTGRCQSALAILQNALKSANDGIVAEYLKTSDRCLAWLAYIHLIEFNILPSKFYDPSNDNPSRIVNTESFVMPWQAVQDVKTNPDMLLAVFEDAVKACTDESLAVEERIEACLPLYTNMIALHQLLERYEAAMELCKSLLESCPINCQLLEALVALYLQTNQHDKARAVWLTAFEKNPQNAEVFYHMCKFFILQNRGDNLLPFLRKFIASFFKPGFEKYNNLDLFRYLLNIPGPIDIPSRLCKGNFDDDMFNHQVPYLWLIYCLCHPLQSSIKETVEAYEAALGVAMRCDIVQKIWMDYLVFANNRAAGSRNKVQEFKFFTDLVNRCLVTVPARYPIPFSSADYWSNYEFHNRVIFFYLSCVPKTQHSKTLERFCSVMPANSGLALRLLQHEWEESNVQILKLQAKMFTYNIPTCLATWKIAIAAEIVLKGQREVHRLYQRALQKLPLCASLWKDQLLFEASEGGKTDNLRKLVSKCQEIGVSLNELLNLNSNKTESKNH

Variants of: B1
Assay: EGFP pull down, LC–MS/MS (AP–MS, TMT labelled); HEK 293T/17 cells; three independent affinity purifications per bait; read off a plot

Row | Variant | screen value
1 | chain 1 K719A, chain 1 K722A, chain 1 K734A | ~-1.8

Variants of: B2
Assay: as above

Row | Variant | screen value
2 | chain 1 K719A, chain 1 K722A, chain 1 K734A | ~-3.1

Variants of: B3
Assay: as above

Row | Variant | screen value
3 | chain 1 K719A, chain 1 K722A, chain 1 K734A | ~-1.7

Variants of: B4
Assay: as above

Row | Variant | screen value
4 | chain 1 K719A, chain 1 K722A, chain 1 K734A | ~-2.7

Variants of: B5
Assay: as above

Row | Variant | screen value
5 | chain 1 K719A, chain 1 K722A, chain 1 K734A | ~-2.8
